This note sets out measurements from US20210100839A1 (CELLECTIS, published 2021).

The target of the assay is T1, recombinant CD22 protein corresponding to the whole extracellular domain of CD22 (human; mouse, UniProt P20273 20-687).
T1 construct: range 20-687; also called full length recombinant CD22 protein; CD22 recombinant protein (full length)
The experiment in a line: flow cytometry, CAR T cells stained with recombinant full length CD22 protein. On the technique in general: In flow cytometry, cells or beads pass a laser one at a time.

Procedure: CAR detection at the surface of T-cells is performed using a recombinant protein consisting on the extracellular domain of the human CD22 protein (whole protein, distal portion of CD22 or proximal portion of CD22) fused together with a murine IgG1 Fc fragment. Binding of this protein to the CAR molecule is detected with a PE-conjugated secondary antibody (Jackson Immunoresearch) targeting the mouse Fc portion of the protein, and analyzed by flow cytometry.
Then, CAR positive cells frequency (% of CAR-expressing cells over the total number of cells) was assessed by flow cytometry using a recombinant CD22 protein corresponding to the membrane proximal domain of CD22 or a recombinant CD22 protein corresponding to the whole extracellular domain of CD22 (FIG. 5).

B1: anti-CD22 CAR9 (prot CAR9) (other)
chain: QVQLQQSGPGLVQPSQTLSLTCVISGDSVSSNSATWNWIRQSPSRGLEWLGRTYYRSKWYNDYAVSVKSRITINPDTSKNQFSLQLNSVTPEDTAVYYCARDGDGGSYYDYYYYGMDVWGQGTTVTVSGGGGSGGGGSGGGGSDIQLTQSPSSLSTSVGDRVTITCRASQSISTYLNWYQQKPGKAPKLLIYAASNLQSGVPSRFSGSGSGTDFTLTISSLQPEDFATYFCQQSYTTPITFGQGTRLEIKTTTPAPRPPTPAPTIASQPLSLRPEACRPAAGGAVHTRGLDFACDIYIWAPLAGTCGVLLLSLVITLYCKRGRKKLLYIFKQPFMRPVQTTQEEDGCSCRFPEEEEGGCELRVKFSRSADAPAYQQGQNQLYNELNLGRREEYDVLDKRRGRDPEMGGKPRRKNPQEGLYNELQKDKMAEAYSEIGMKGERRRGKGHDGLYQGLSTATKDTYDALHMQALPPR
notes: Original clone number 9; Single-chain CAR on T cells; range counted on the printed copy; also called CAR9 7
Take B1: the binding result is “binds”.

B2: anti-CD22 CAR7 (prot CAR7) (other)
chain: QVQLQQSGPGLVEPSQTLSLTCAISGDSVSSDSVAWNWIRQSPSRGLEWLGRTYYRSTWYNDYAGSVKSRITINPDTSKNQFSLQLNSVTPEDTAVYYCARDRNGMDVWGQGTMVTVSGGGGSGGGGSGGGGSDIVMTQSPSSLSASVGDRVTITCRASQSISSYLNWYQQKPGKAPKLLIYDASNLETGVPSRFSGSGSGTDFTFTITSLQPEDFATYYCQQSYTTPLTFGGGTKVEIKTTTPAPRPPTPAPTIASQPLSLRPEACRPAAGGAVHTRGLDFACDIYIWAPLAGTCGVLLLSLVITLYCKRGRKKLLYIFKQPFMRPVQTTQEEDGCSCRFPEEEEGGCELRVKFSRSADAPAYQQGQNQLYNELNLGRREEYDVLDKRRGRDPEMGGKPRRKNPQEGLYNELQKDKMAEAYSEIGMKGERRRGKGHDGLYQGLSTATKDTYDALHMQALPPR
notes: Single-chain CAR on T cells; range counted on the printed copy; also called CAR7 5
For B2, the binding result is “binds”.

B3: anti-CD22 CAR8 (prot CAR8) (other)
chain: QVQLQQSGPGLVKPSQTLSLTCAISGDSVSSSSAAWNWIRQSPSRGLEWLGRTYYRSAWYNDYAVSVKSRITINPDTSKNQFSLQLNSVTPEDTAVYYCARESVLLDGMDVWGRGTTVTVSGGGGSGGGGSGGGGSAIRMTQSPSTLSASVGDRVTITCRASQSISTYLNWYQQKAGKAPRLLIHDASSLQSGVPSRFSGSGSGTDFTLTISSLQPEDFATYYCQQSYSTPLTFGGGTKVEIKTTTPAPRPPTPAPTIASQPLSLRPEACRPAAGGAVHTRGLDFACDIYIWAPLAGTCGVLLLSLVITLYCKRGRKKLLYIFKQPFMRPVQTTQEEDGCSCRFPEEEEGGCELRVKFSRSADAPAYQQGQNQLYNELNLGRREEYDVLDKRRGRDPEMGGKPRRKNPQEGLYNELQKDKMAEAYSEIGMKGERRRGKGHDGLYQGLSTATKDTYDALHMQALPPR
notes: Original clone number 8; Single-chain CAR on T cells; range counted on the printed copy; also called CAR8 6
Turning to B3, the binding result is given as “binds”.

B4: anti-CD22 CAR2 (prot CAR2) (other)
chain: QVQLQQSGPGLVKPSQTLSLTCAISGDSVSSNSAAWNWIRQSPSRGLEWLGRTYYRSKWYNDYAVSVKSRITINPDTSKNQFSLQLNSVTPEDTAVYYCARASMTGGYSYGDAFDIWGQGTLVTVSGGGGSGGGGSGGGGSAIRMTQSPSSLSASVGDRVTITCRASQSISSYLNWYQQKPGKAPKLLIYAASSLQSGVPSRFSGSGSGTDFSLTISSLQPEDSATYYCQQTYSTPLTFGQGTKVEIKTTTPAPRPPTPAPTIASQPLSLRPEACRPAAGGAVHTRGLDFACDIYIWAPLAGTCGVLLLSLVITLYCKRGRKKLLYIFKQPFMRPVQTTQEEDGCSCRFPEEEEGGCELRVKFSRSADAPAYQQGQNQLYNELNLGRREEYDVLDKRRGRDPEMGGKPRRKNPQEGLYNELQKDKMAEAYSEIGMKGERRRGKGHDGLYQGLSTATKDTYDALHMQALPPR
notes: Single-chain CAR on T cells; range counted on the printed copy
As for B4, the binding result was “binds”.

B5: anti-CD22 CAR15 (prot CAR15) (other)
chain: QVQLVQSGAEVKKPGASVKVSCKASGYTFTSYYMHWVRQAPGQGLEWMGIINPSGGSTSYAQKFQGRVTMTRDTSTSTVYMELSSLRSEDTAVYYCAREDSGSGAFDIWGQGTLVTVSGGGGSGGGGSGGGGSEIVLTQSPLSLPVTPGEPASISCRSSRSLLSYHGYNYLDWYLQKPGQSPQLLIFVGSNRAPGVPDRFSGSGSGTDFTLNISRVEAEDVGVYYCMQSLQTPRTFGQGTKVEIKTTTPAPRPPTPAPTIASQPLSLRPEACRPAAGGAVHTRGLDFACDIYIWAPLAGTCGVLLLSLVITLYCKRGRKKLLYIFKQPFMRPVQTTQEEDGCSCRFPEEEEGGCELRVKFSRSADAPAYQQGQNQLYNELNLGRREEYDVLDKRRGRDPEMGGKPRRKNPQEGLYNELQKDKMAEAYSEIGMKGERRRGKGHDGLYQGLSTATKDTYDALHMQALPPR
notes: Original clone number 15; Single-chain CAR on T cells; range counted on the printed copy; also called CAR15 10
For B5, the binding result is “binds”.

B6: anti-CD22 CAR3 (prot CAR3) (other)
chain: QVQLQQSGPGLVEPSQTLSLTCAISGDSVSSDSVAWNWIRQSPSRGLEWLGRTYYRSTWYNDYAGSVKSRITINPDTSKNQFSLQLTSVTPEDTAVYYCTRSRHNTFRGMDVWGQGTTVTVSGGGGSGGGGSGGGGSDIVMTQSPSSLSASVGDRVTITCRASQTISSYLNWYQQKPGKAPKLLIYDASSLQSGVPSRFSGSGSGTDFTLTINSLQPEDFATYYCQQSYTTPITFGQGTRLEIKTTTPAPRPPTPAPTIASQPLSLRPEACRPAAGGAVHTRGLDFACDIYIWAPLAGTCGVLLLSLVITLYCKRGRKKLLYIFKQPFMRPVQTTQEEDGCSCRFPEEEEGGCELRVKFSRSADAPAYQQGQNQLYNELNLGRREEYDVLDKRRGRDPEMGGKPRRKNPQEGLYNELQKDKMAEAYSEIGMKGERRRGKGHDGLYQGLSTATKDTYDALHMQALPPR
notes: as for B4
For B6, the binding result is on record as “binds”.
